From US20030064061A1, “Bcr-Abl oligomerization domain polypeptides and uses therefor” (Whitehead Institute for Biomedical Research, priority 2001, published 2003)

How the values were obtained:
[1] = Circular dichroism thermal denaturation; type: physicochemical; conditions: stable α-helical structure, PBS pH 7.4, heated from 0-98° C.
Experimental: Circular dichroism experiments were performed on an Aviv 62A DS circular dichroism spectrometer. Measurements from […] were performed in a 10 μM solution of protein sample in PBS (50 mM Na phosphate, 150 mM NaCl, pH 7.4) in a 1-mm path-length cuvette. Thermal denaturation was performed in a 10 mm path-length cuvette and samples were heated from 0-98° C., with equilibration times of 2 minutes and an averaging time of 1 minute. Protein concentrations were determined by absorbance at 280 nm in 20 mM phosphate-buffered 6M guanidine-hydrochloride (pH 6.5) (H. Edelhoch, Biochemistry 6, 1948-54 (1967)).

[2] = Solubility in physiological buffers; type: physicochemical
[3] = molecular target: Bcr1-72C38A (Bcr-Abl oligomerization domain, residues 1-72 of human Bcr, Cys38 mutated to Ala), monomer chain (human); experiment: X-ray crystal structure, buried surface
[4] = molecular target: Bcr1-72C38A (Bcr-Abl oligomerization domain, residues 1-72 of human Bcr, Cys38 mutated to Ala), monomer chain (human); experiment: X-ray crystal structure, interface analysis
[5] = molecular target: Bcr1-72C38A dimer (domain-swapped antiparallel coiled-coil dimer seen in the crystal) (human); experiment: X-ray crystal structure, buried surface
[6] = test system: Bcr-Abl transformation of Rat-1 fibroblasts; experiment: Rat-1 focus-formation assay; type: cell-based; conditions: Rat-1 fibroblasts cotransfected with MIG-P210 and increasing doses of plasmid B74; foci counted after 3 weeks
Experimental: FIG. 5 is a graphic representation of results of a Rat-1 focus-formation assay. Data shown are the average of three dishes and are representative of four independent experiments. Error bars indicate the standard deviation of foci numbers between the experiments.
Whether the Bcr-Abl oligomerization domain inhibits full-length Bcr-Abl oligomerization in a dominant-negative manner was assessed. […] The total number of transformed foci was quantified after 3 weeks. Transected cultures were stained with 0.4% crystal violet to better visualize transformed foci.
For expression in mammalian cells, Bcr1-74 fragments were PCR amplified from pMBP/Bcr1-74 (with the optimal E. coli codons) as mentioned above, and inserted into the retroviral expression vector pMX-IRES-GFP (X. Liu et al., Anal Biochem 280, 20-28 (2000)) using BamHI and NotI sites. The resulting plasmid was denoted p74-IES-GFP (B74). Although it has been reported that the Bcr oligomerization domain as contained in residues 1-71 (SEQ ID NO: 19; SEQ ID NO: 20) of the Bcr protein cannot be stably expressed in mammalian cells (C. L. Sawyers, N Engl J Med 340, 1330-40 (1999)), a fair amount of Bcr1-74 (SEQ ID NO: 7) protein was detected by Western blotting when B74 was expressed in vivo. It is possible that use of E. coli-optimized codons improved expression in this domain. […] The total number of transformed foci was counted after 3 weeks.

Bcr-Abl = molecular target: T1, Bcr-Abl (Homo sapiens, UniProt P00519+P11274); conditions: literature reports (Guo 1998; Wu 1999); cited from earlier work
T1 construct: c-Abl portion (ABL1, fusion partner)
T1 sequence (P11274 1-426 limits assumed): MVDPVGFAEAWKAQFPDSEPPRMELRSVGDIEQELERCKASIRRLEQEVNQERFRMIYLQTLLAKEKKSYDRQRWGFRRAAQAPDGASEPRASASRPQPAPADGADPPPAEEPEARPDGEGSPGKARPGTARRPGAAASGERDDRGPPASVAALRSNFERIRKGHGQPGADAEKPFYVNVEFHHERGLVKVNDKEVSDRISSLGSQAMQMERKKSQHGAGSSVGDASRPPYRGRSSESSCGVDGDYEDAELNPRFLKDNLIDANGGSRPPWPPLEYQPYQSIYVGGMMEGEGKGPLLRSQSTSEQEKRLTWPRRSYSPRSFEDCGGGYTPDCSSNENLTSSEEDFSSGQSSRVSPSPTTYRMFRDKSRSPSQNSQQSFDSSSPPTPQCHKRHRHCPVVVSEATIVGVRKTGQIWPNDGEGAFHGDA

## Ac-DIEQELERCKASIRRLEQEVNQERFRMIYLQTLLAK-NH2 [Bcr30-65]
[1]
  midpoint of thermal denaturation (Tm): 60 °C
[2]
  solubility in physiological buffers: poor solubility

B1: Bcr1-72C38A (Bcr-Abl oligomerization domain, residues 1-72 of human Bcr, Cys38 mutated to Ala), monomer chain (protein, UniProt P11274 1-72 with C38A, looked up)
chain: MVDPVGFAEAWKAQFPDSEPPRMELRSVGDIEQELERAKASIRRLEQEVNQERFRMIYLQTLLAKEKKSYDR
modifications: oligomerization domain residues 1-72 selenomethionine form also used
[3]
  solvent-accessible surface buried upon dimer formation: 4200 Å^2
[4]
  hydrogen bonds in the dimer interface (hydrogen bonds): 3
  salt bridges in the dimer interface: 7 salt bridges
  van der Waals contacts in the dimer interface (radius cutoff 4 Å): 217 contacts

B2: Bcr1-72: Recombinant wild-type polypeptide, residues 1-72 of the N-terminus of human Bcr (oligomerization domain) (protein, UniProt P11274 1-72, looked up, fragment)
chain: MVDPVGFAEAWKAQFPDSEPPRMELRSVGDIEQELERCKASIRRLEQEVNQERFRMIYLQTLLAKEKKSYDR
[1]
  midpoint of thermal denaturation (Tm): 84 °C

B3: Bcr1-72C38A dimer (domain-swapped antiparallel coiled-coil dimer seen in the crystal) (protein, UniProt P11274 1-72 with C38A, looked up)
chain: MVDPVGFAEAWKAQFPDSEPPRMELRSVGDIEQELERAKASIRRLEQEVNQERFRMIYLQTLLAKEKKSYDR
modifications: oligomerization domain residues 1-72, homodimer
[5]
  solvent-accessible surface buried upon association of two dimers: 3400 Å^2

B4: Bcr1-74: Residues 1-74 of human Bcr; expressed in Rat-1 cells from retroviral plasmid B74 (p74-IRES-GFP) (protein, UniProt P11274 1-74, looked up, fragment)
chain: MVDPVGFAEAWKAQFPDSEPPRMELRSVGDIEQELERCKASIRRLEQEVNQERFRMIYLQTLLAKEKKSYDRQR
[6]
  transforming potential of Bcr-Abl (number of transformed foci): inhibited the transforming potential of Bcr-Abl

B5: N-terminal 160 amino acids of Bcr: N-terminal 160 amino acids of Bcr, which contain the oligomerization domain (literature) (protein, UniProt P11274 1-160, looked up, fragment)
chain: MVDPVGFAEAWKAQFPDSEPPRMELRSVGDIEQELERCKASIRRLEQEVNQERFRMIYLQTLLAKEKKSYDRQRWGFRRAAQAPDGASEPRASASRPQPAPADGADPPPAEEPEARPDGEGSPGKARPGTARRPGAAASGERDDRGPPASVAALRSNFER
Bcr-Abl
  Bcr-Abl transformation: inhibit Bcr-Abl transformation

B6: full-length Bcr: Full-length human Bcr protein, 1271 amino acids (literature) (protein, UniProt P11274 1-1271, looked up)
chain: MVDPVGFAEAWKAQFPDSEPPRMELRSVGDIEQELERCKASIRRLEQEVNQERFRMIYLQTLLAKEKKSYDRQRWGFRRAAQAPDGASEPRASASRPQPAPADGADPPPAEEPEARPDGEGSPGKARPGTARRPGAAASGERDDRGPPASVAALRSNFERIRKGHGQPGADAEKPFYVNVEFHHERGLVKVNDKEVSDRISSLGSQAMQMERKKSQHGAGSSVGDASRPPYRGRSSESSCGVDGDYEDAELNPRFLKDNLIDANGGSRPPWPPLEYQPYQSIYVGGMMEGEGKGPLLRSQSTSEQEKRLTWPRRSYSPRSFEDCGGGYTPDCSSNENLTSSEEDFSSGQSSRVSPSPTTYRMFRDKSRSPSQNSQQSFDSSSPPTPQCHKRHRHCPVVVSEATIVGVRKTGQIWPNDGEGAFHGDADGSFGTPPGYGCAADRAEEQRRHQDGLPYIDDSPSSSPHLSSKGRGSRDALVSGALESTKASELDLEKGLEMRKWVLSGILASEETYLSHLEALLLPMKPLKAAATTSQPVLTSQQIETIFFKVPELYEIHKEFYDGLFPRVQQWSHQQRVGDLFQKLASQLGVYRAFVDNYGVAMEMAEKCCQANAQFAEISENLRARSNKDAKDPTTKNSLETLLYKPVDRVTRSTLVLHDLLKHTPASHPDHPLLQDALRISQNFLSSINEEITPRRQSMTVKKGEHRQLLKDSFMVELVEGARKLRHVFLFTDLLLCTKLKKQSGGKTQQYDCKWYIPLTDLSFQMVDELEAVPNIPLVPDEELDALKIKISQIKNDIQREKRANKGSKATERLKKKLSEQESLLLLMSPSMAFRVHSRNGKSYTFLISSDYERAEWRENIREQQKKCFRSFSLTSVELQMLTNSCVKLQTVHSIPLTINKEDDESPGLYGFLNVIVHSATGFKQSSNLYCTLEVDSFGYFVNKAKTRVYRDTAEPNWNEEFEIELEGSQTLRILCYEKCYNKTKIPKEDGESTDRLMGKGQVQLDPQALQDRDWQRTVIAMNGIEVKLSVKFNSREFSLKRMPSRKQTGVFGVKIAVVTKRERSKVPYIVRQCVEEIERRGMEEVGIYRVSGVATDIQALKAAFDVNNKDVSVMMSEMDVNAIAGTLKLYFRELPEPLFTDEFYPNFAEGIALSDPVAKESCMLNLLLSLPEANLLTFLFLLDHLKRVAEKEAVNKMSLHNLATVFGPTLLRPSEKESKLPANPSQPITMTDSWSLEVMSQVQVLLYFLQLEAIPAPDSKRQSILFSTEV
modifications: full-length
Bcr-Abl
  Bcr-Abl transformation: inhibit Bcr-Abl transformation
